The values below come from patent publication US20250074980A1 (BRIGHAM AND WOMEN S HOSPITAL, published 2025).

The chains are these.
T1: His-tagged CEACAM1 (human, UniProt P13688 35-428)
T1 construct: 45 kDa SPR analyte; also called CEACAM1-HIS; CEACAM1 analyte
T1 sequence: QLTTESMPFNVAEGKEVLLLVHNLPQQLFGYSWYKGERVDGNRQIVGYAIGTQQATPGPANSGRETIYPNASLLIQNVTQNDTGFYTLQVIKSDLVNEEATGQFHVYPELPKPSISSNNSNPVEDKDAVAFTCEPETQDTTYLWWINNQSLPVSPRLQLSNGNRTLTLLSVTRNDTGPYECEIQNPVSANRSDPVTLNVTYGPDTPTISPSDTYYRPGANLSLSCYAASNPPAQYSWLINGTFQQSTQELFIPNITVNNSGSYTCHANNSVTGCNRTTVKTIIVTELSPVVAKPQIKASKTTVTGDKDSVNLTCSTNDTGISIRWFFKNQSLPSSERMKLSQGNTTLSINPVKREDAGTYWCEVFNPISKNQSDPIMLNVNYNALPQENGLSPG

T2: CEACAM3 on transfected HeLa cells (human, UniProt P40198 35-252)
T2 construct: whole, on cells; also called HeLa-CEACAM3; HeLa C3
T2 sequence (looked up): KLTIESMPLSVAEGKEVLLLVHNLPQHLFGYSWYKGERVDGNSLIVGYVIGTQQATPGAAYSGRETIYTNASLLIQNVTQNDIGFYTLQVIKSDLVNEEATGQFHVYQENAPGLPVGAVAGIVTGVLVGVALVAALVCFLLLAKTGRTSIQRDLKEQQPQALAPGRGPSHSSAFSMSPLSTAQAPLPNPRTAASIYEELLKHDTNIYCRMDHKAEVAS

T3: CEACAM6 on transfected HeLa cells (human, UniProt P40199 35-320)
T3 construct: whole, on cells; also called HeLa-CEACAM6; HeLa C6
T3 sequence (looked up): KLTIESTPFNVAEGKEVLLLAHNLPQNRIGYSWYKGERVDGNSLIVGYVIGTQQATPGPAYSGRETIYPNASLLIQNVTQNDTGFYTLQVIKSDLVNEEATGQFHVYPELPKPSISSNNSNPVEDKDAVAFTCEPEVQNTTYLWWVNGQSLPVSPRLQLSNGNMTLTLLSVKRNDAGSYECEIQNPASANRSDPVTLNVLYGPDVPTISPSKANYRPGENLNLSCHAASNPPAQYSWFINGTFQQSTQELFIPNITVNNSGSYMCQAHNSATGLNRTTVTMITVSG

B1: chimeric antibody VH0/Vκ0 (antibody, IgG4, V domains shown)
VH: EVQLVESGGDLVKPGGSLKLACAASGFIFSSHGMSWVRQTPDKRLEWVATISSGGTYTYYPDSVKGRFTISRDNDKNTLYLQMNSLKSEDTAMYYCARHDFDYDAAWFAYWGQGTLVTVSS
VL: QIVLTQSPALMSASPGVKVTMTCSANSSVSYMYWYRQKPRSSPKPWIYLTSNLASGVPARFSGSGSGTSYSLTISSMEAEDAATYYCQQWSSNPPTFGSGTKLEIK
notes: IgG4 (S241P), kappa; also called VH0/Vκ0 (control); Chimeric VH0/Vκ0
B2: VH1/Vκ8 S29A (antibody, IgG4, V domains shown)
VH: B1 VH with V5L, D10G, K13Q, K19R, A21S, T40A, D42G, R44G, D75S, S88A
VL: EIVLTQSPATLSLSPGERATLSCRANSAVSYMYWYQQKPGQAPRPWIYLTSNRATGVPARFSGSGSGTDYTLTISSLEPEDFAVYYCQQWSSNPPTFGQGTKLEIK
notes: IgG4 (S241P), kappa; also called Parent; Parent (VH1/Vκ8 S29A)
B3: CP08H03/CP08F05 (antibody, V domains shown)
VH: EVQLLESGGGLVQPGGSLRLSCAASGFIFSSHGMSWVRQAPGKGLEWVATISSGGTYTYYPDSVKGRFTISRDNSKNTLYLQMNSLKAEDTAMYYCARHDFDYFPYWFAHWGQGTLVTVSS
VL: B2 VL with S91T
notes: IgG4 (S241P), kappa
B4: CP08H03/Vκ8 S29A (antibody, IgG4, V domains shown)
VH: B3 VH
VL: B2 VL
notes: IgG4 (S241P), kappa; also called CP08_H03/Parent VL; CP08_H03/Parental

Positions count from the first letter of the chain named. Names may count otherwise. “And” between values parts separate entries of the source, which are not always exact repeats. Equal values may be shown once.

The target in one experiment is T1, His-tagged CEACAM1. Briefly: SPR multi-cycle, purified IgG captured. On the procedure: Variants CP08H03/Vκ8 S29A and CP08H03/CP08F05 were further analyzed using multi-cycle kinetics analysis, using a Biacore T200 instrument running Biacore T200 Evaluation Software V3.0.1. The purified antibodies were diluted to a concentration of 1 μg/ml in HBS-P+. At the start of each cycle, each antibody was captured on the Protein A surface to give an RL of ˜100 RU. Following capture, the surface was allowed to stabilize. Kinetic data was obtained using a flow rate of 80 μl/min to minimize any potential mass transfer effects. Multiple repeats of the blank (no CEACAM1) and a repeat of a single concentration of the analyte were programmed into the kinetic run in order to check the stability of both the surface and analyte over the kinetic cycles. For kinetic analysis, a two-fold dilution range was selected from 100 to 1.56 nM CEACAM1. The association phase of CEACAM1 was monitored for 150 seconds and the dissociation phase was measured for 150 seconds. Regeneration of the Protein A surface was conducted using two injections of 10 mM glycine-HCL pH 1.5 at the end of each cycle.
The signal from the reference channel Fc1 was subtracted from that of Fc2, Fc3 and Fc4 to correct for differences in non-specific binding to a reference surface, and a global Rmax parameter was used in the 1-to-1 binding model. The relative Kp compared to Parent (VH1/Vκ8 S29A) was calculated by dividing the Kp of the affinity matured composite human antibody variants by that of the Parent on the same chip. The kinetic parameters measured for the interaction of CEACAM1 with affinity matured CEACAM1 antibody variants CP08H03/Vκ8 S29A and CP08H03/CP08F05 are shown in Table 23.
By Kd is commonly meant the equilibrium constant for the complex coming apart. A higher Kd goes with a looser complex. As a reminder, the koff is the rate constant with which the complex falls apart. Read a low koff as slow dissociation. Broadly, the kon is the rate constant with which the complex forms. Read a low kon as slower complex formation. As to B1, the Kd was 95 nM and 100 nM; the off-rate constant (koff) is 0.045 s⁻¹ and 0.035 s⁻¹; the kon was 470000 M⁻¹ s⁻¹ and 350000 M⁻¹ s⁻¹.

In the case of B2, the Kd is 420 nM and 490 nM; the koff is 0.045 s⁻¹ and 0.06 s⁻¹; the kon is 110000 M⁻¹ s⁻¹ and 120000 M⁻¹ s⁻¹; the “relative KD to parent” value turned out to be 1.

Regarding B3, the Kd is 58 nM, the koff was found to be 0.0078 s⁻¹, the kon stood at 130000 M⁻¹ s⁻¹ and the “relative KD to parent” value is 8.4.

As to B4, the Kd amounted to 99 nM, the koff worked out at 0.009 s⁻¹, the kon came out at 91000 M⁻¹ s⁻¹ and the “relative KD to parent” value is 4.3.

For the next experiment, the target named is T2, CEACAM3 on transfected HeLa cells. Briefly: flow cytometry, HeLa-CEACAM3 transfectants, % staining, stacked bars. The text has this: (§1) FIG. 11 illustrates the binding selectivity of different affinity-matured CEACAM1 antibodies. […] HELA cells were transfected with vector alone (HeLa-Neo) or vectors expressing CEACAM1, CEACAM3, CEACAM5, or CEACAM6, respectively, and stained with the indicated antibodies. […] MOPC=mouse IgG1 control antibody. Mouse antibodies as positive control for transfected CEACAM isoforms: Col-1=CEACAM3 and CEACAM5 antibody. 9A6=CEACAM6 antibody. T84.1=CEACAM cross-reactive antibody and T84.66=CEACAM5 antibody. Only 2nd FITC=No primary antibody, only secondary FITC conjugated antibody. […] Data for affinity-matured antibodies 9B3_8H3/Vκ8 S29A, 8H3_9B3/CP08_E05, and 8H3_9C2/CPO08_F05, as well as data for CEACAM8 antibody 80H3 were omitted from the FIG. due to an unusually high background signal.
A general note: A flow cytometer gives signals particle by particle.
Consider B2, for which the binding result was “no binding”.

Turning to B3, the binding result was “no binding”.

The target in a further experiment is T3, CEACAM6 on transfected HeLa cells. Put plainly: flow cytometry, HeLa-CEACAM6 transfectants, % staining, stacked bars.
From the text: as §1
As to B2, the binding result is given as “no binding”.

For B3, the binding result was “no binding”.
